The target in this assay is T1, 10E8-GT10.2 epitope scaffold (designed scaffold 10E8-GT10.2 with …, N-linked glycosylation sites added (positions not given)).
T1 chain: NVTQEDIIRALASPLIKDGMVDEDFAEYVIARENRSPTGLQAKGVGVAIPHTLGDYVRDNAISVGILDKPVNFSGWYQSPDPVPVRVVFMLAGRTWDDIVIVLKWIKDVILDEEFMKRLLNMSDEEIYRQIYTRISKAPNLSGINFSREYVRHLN

B1: NHP-10E8_MPER-GT10v55_W10-10 (antibody, V domains shown)
VH: EVQVVESGGGLVQPGGSLRLSCAASGFTFSDYAMDWVRQAPGKGLEWVGFIRSKDYGGTAEYAASVKGRFTISRDDSKNTAYLQMSSLKTEDTAVYYCTRDRRYYSFWSGYDRGWYFDLWGQGALVTVSS
VL: DIVMTQTPLSLPVTLGEPASISCRSSQSLLNSEDGNTSLAWYLQKPGQSPQLLIYEVSNRASGVPDRFSGSGSDTDFTLKISRVEAEDVGVYYCMQPLEFPPTFGQGTKVEIK
The Kd is the equilibrium constant for the complex coming apart. A higher Kd goes with weaker binding. In turn, B1 had a Kd of 0.0956 µM.

B2: NHP-10E8_MPER-GT10v55_W21-10 (antibody, V domains shown)
VH: EVRLVESGGDLVQPGGSLRLSCAASGFTFSYYSMSWVRQAPGKGLEWIGFIKNKADGGTEAYAESVKGRFTISRDDSENTLYLQMNSLKTDDTAVYSCTRGRVYYNFWSGFYTGGRFDVWGPGVLVTVSS
VL: DIVMTQTPLSLPVTPGEPASISCRSSQSLLDSEDGNTYLDWYLQKPGQSPQLLIYEVSNRASGVPDRFSGSGSDTDFTLKISRLEAEDVGVYYCMQGLEFPFTFGPGTKLDIK
As for B2, the Kd amounted to 0.00081 µM.

B3: NHP-10E8_MPER-GT10v55_W26-04 (antibody, V domains shown)
VH: EVQLVESGGGLVQPGGSLRLSCAASGFTFSSYGMHWVRQAPGKGLEWVAVIWYDGSKKYYADSVKDRFTISRDNSKNMLYLQMNNLKLEDTAVYYCARGGAYYNFWSGYYTLLNRFDVWGPGVLVTVSS
VL: DIVMTQTPLSLPVTPGEPASISCRSSQSLLDSEDGNTYLDWYLQKPGQSPQLLIYEVSNRASGVPDRFSGSGSDTDFTLKISRVEAEDVGVYYCMQGLEFPYSFGQGTKVEIK
B3 yielded a Kd of 5.05 µM.

B4: NHP-10E8_MPER-GT10v55_W21-13 (antibody, V domains shown)
VH: QLQLQESGPGLVKPSETLSLTCAVSGGSISGGYGWSWIRQPLGKGLEWIGHIFGSIGSTYYNPSLKSRVTISTDTSKNQFSLKLSSVTAADTAVYYCARTRSFYNFWSGYYTRHAFDFWGQGLRVTVSS
VL: DIVMTQTPLSLPVTLGEPASISCRSSQSLLDSEDGNTYLEWYLQKPGQSPQLLIYEVSNRASGVPDRFSGSGSDTDFTLKISRVEAEDVGVYYCMQALEFPPTFGQGTKVEIK
Turning to B4, the affinity, expressed as Kd, was 1.3 µM.

B5: NHP-10E8_MPER-GT10v55_W21-17 (antibody, V domains shown)
VH: QVQLQESGPGLVKPSETLSLTCVVAGGSISDDYYWSWIRQSPGKGLEWIGYIYGSGGGTKYNPSLKNRVTISIDTSKNQFSLKLSSVTAADTAVYYCARELRYYNFWSGYYDNYYGLDSWGQGVVVTVSS
VL: DIVMTQTPLSLPITPGEPASISCRSSQSLLHSTGNTYLHWYLQKPGQSPQLLIYGGSNRASGVPDRFSGSGSGTDFTLKISKVEAEDVGVYYCVQAIAFPFTFGPGTKLDIK
With B5, the Kd came to 0.00241 µM.

B6: NHP-10E8_MPER-GT10v55_W26-02 (antibody, V domains shown)
VH: EVQLVESGGGLAKPGGSLRLSCAASGFTFSDYYMDWVRQAPGKGLEWVSRISNGGGSTWYADSVKGRFTISRENAKNTLYLQMNSLRAEDTAVYYCASELSYYNFWSGYGASYGLDSWGQGVVVTVSS
VL: QPVLTQPTSLSASPGASARLTCTLRSGISVGSYRIFWYQQKPGSPPRYLLNYHTDSDKHQGSGVPSRFSGSKDASANAGILLISGLQSEDEADYYCMIWHNNAYIFGAGTRLTV
Turning to B6, the Kd came to 3.09 µM.

B7: NHP-10E8_MPER-GT10v55_W21-06 (antibody, V domains shown)
VH: EVRLVESGGGLVQPGGSLRLSCAASGFTFSDYYMSWVRQAPGKGPEWVGFIRNKANGGTAEYAASVKGRFTISRDDSKSIASLQMNSLKTEDTAVYYCAREKVYYNFWSGYLENYGLDSWGQGVVVTVSS
VL: DVVMTQSPLSLPITPGQPASISCRSSQSLVYSDGKTYLNWYQQKPGQPPRRLIYQVSNRDSGVPDRFSGSGAGTDFTLKISRVEAEDVGVYYCMQGTHLPYSFGQGTKVEIK
As to B7, binding was characterised by a dissociation constant (Kd) of 5.92 µM.

B8: NHP-10E8_MPER-GT10v55_W21-08 (antibody, V domains shown)
VH: EVQLVESGGGLVQPGGSLRLSCAASGFTFSDYYMYWVRQAPGKGLEWVGFIRSKAYGGTAEYAASVKGRFTISRDDSKSIAYLQMSSLKTEDTAVYYCTRALPYYNFWSGYYTHFDAFDFWGQGLRVTVSS
VL: QAAPTQPPSVSGSPGQSVTISCTGTSSDIGYYNAVSWYQQHPGKAPKLMIYEVSKRPSGVSDRFSGSKSGNTASLTISGLQAEDEADYYCSSYAGSNTLLFGGGTRLTV
Turning to B8, the affinity, expressed as Kd, was 13.2 µM.

B9: NHP-10E8_MPER-GT10v55_W21-16 (antibody, V domains shown)
VH: QVQLQESGPGLVKPSETLSLTCAVSGGSISSGYYYWSWIRQPPGKGLEWIGYITYSGSTSYNPSLKSRVTISRDTSKNQFSLKLSSVTAADTAVYYCARVGVYYNFWSGYYTNTYFDYWGQGVLVTVSS
VL: QAAPTQPPSVSGSPGQSVTISCTGTSSDIGYYNAVSWYQQHPGKAPKLMIYEVSKRPSGVSDRFSGSKSGNTASLTISGLQAEDEADYYCSSYAGSNTFIFGAGTRLTV
In turn, B9 returned a Kd of 2.4 µM.

B10: NHP-10E8_MPER-GT10v55_W26-01 (antibody, V domains shown)
VH: QLQLQESGPGLVKPSETLSLTCAVSGGSISSNYWSWIRQPPGKGLEWIGRISGSGGSTDYNPSLKSRVTISTDTSKNQFSLKLSSVTAADTAVYYCAGNSHYYNFWSGYYGDNSLDVWGRGVLVTVSS
VL: SYDVTQPRSVSVSPGQTARITCGGDNIGSKNVHWYQQKPAQAPVLVIYYDSDRPSGIPERFSGSNSGNTATLTISGVEAGDEADYYCQVWDSSSDHRLFGGGTRLTV
Take B10: the dissociation constant Kd came out at 3.69 µM.

B11: NHP-10E8_MPER-GT10v55_W21-09 (antibody, V domains shown)
VH: EVRLVESGGGLVQPGGSLRLSCAASGFTFSDYYMSWVRQAPGKGPEWVGFIRNKANGGTAEYAASVKGRFTISRDDSKSIASLQMNSLKTEDTAVYYCARESPYYNFWSGYYGTNDAFDFWGQGLRVTVSS
VL: QPVLTQSPSASASLGASVKLTCTLSSGHSSYAIAWHQQQQGKAPRYLMRLNSVGSHSKGDGIPDRFSGSSSGAERYLTISNLQSEDEADYYCQTWTTGIQVFGGGTRLTV
For B11, the Kd stood at 3.32 µM.

B12: NHP-10E8_MPER-GT10v55_W21-03 (antibody, V domains shown)
VH: EVHLVESGAGLVQPGGSLRLSCAASGFTFRNSWMSWVRQAPGKGLEWIARIKRKADGETTDYAASVKGRFTLSRDDSKNTVYLQMDSLKTEDTAVYYCTTDQGYYNFWSGNYDYYGLDSWGQGVVVAVSS
VL: DIQMTQSPSSLSAFVGDRVTITCRASQGISTHLNWYQQKPGKAPKRLIYTSSNLETGVPSRFSGSGSGTDFTLTISSLQPEDFATYYCLQYNSDPWTFGQGTKVEIK
As for B12, the affinity, expressed as Kd, was 8.32 µM.

B13: NHP-10E8_MPER-GT10v55_W26-07 (antibody, V domains shown)
VH: QVQLQESGPGLVKPSETLSLTCAVSGGSFSSYWWGWIRQTPGKGLEWIGSIYGSSGTTEYNPSHKSRATISRDTSENQFSLKLSSVTAADTAVYYCARSGEWPYNFWGGTHNPPHWYFDLWGPGTPIIISS
VL: DVVMTQSPLSLSITPGQPASISCRSSHSLIHSNGNTYLSWYQQKPGQPPRRLIYEVSKQDSGVPERFSGSGAGTDFTLKISRVEAEDVGIYYCGQGTHLPLTFGPGTKLDIK
B13 displayed a Kd of 0.0326 µM.

B14: NHP-10E8_MPER-GT10v55_W21-07 (antibody, V domains shown)
VH: EVQLVESGGGLVQPGGSLRLSCAASGFTFSDYAMDWVRQAPGKGLEWVGFIRSKAYGGTAEYAASVKGRFTISRDDSKNTAYLQMSSLKTEDTAVYYCTRAARGYNFWSGYYTGYGLDSWGQGVVVTVSS
VL: EIVMTQSPATLSLSPGERATLSCRTSQSVSSYVAWYQQKPEQAPRLLIYGASSRATGIPDRFSGGGSGTDFTLTISSLEPEDFAVYYCQQYSNWPYSFGQGTKVEIK
As to B14, the Kd worked out at 7.64 µM.

B15: NHP-10E8_MPER-GT10v55_W10-11 (antibody, V domains shown)
VH: EVQLVESGGGLVQPGGSLRLSCAASGFAFSDYTMDWVRQAPGKGLEWVGFIRSRDYGGKVDYAASVKGRFTISRDDSKNTAYLHMSSLKTEDTAVYYCTRSKRHYSFWSGDYPHYGLDSWGQGVVVTVSS
VL: QSVVTQPPSVSGDPGQRVTIYCTGNSSNIGGYDVYWYQQVPGTAPKLLMYENNKRPSGVSDRFSGSKSGTSASLTITGLQSEDEAEYYCETWDNSLNGRVFGGGTRLTV
In turn, B15 returned a Kd of 4.16 µM.

B16: NHP-10E8_MPER-GT10v55_W10-12 (antibody, V domains shown)
VH: EVHLVESGGGLVQPGGSLRLSCAASGFTFSDYAMDWVRQAPGKGLEWVGFIGSKDYGGTVEYAASVKGRFTISRDDLKNTAYLQMSRLKTEDTAVYYCTRSKTCYSFWSGYYPHYGLDSWGQGVVVTVSS
VL: QSVLTQPPSVSGDPGQRVTISCTGNSSNIGGFDVYWYQLLPGTAPKLLIYENTKRPSGISDRFSGSKSGTSASLTITGLQSEDEAEYYCETWDNSLNGRLFGGGTRLTV
Regarding B16, the Kd was 0.752 µM.

B17: NHP-10E8_MPER-GT10v55_W21-15 (antibody, V domains shown)
VH: QLQLQESGPGLVKPSETLSLTCAVSGGSISSSNWWSWIRQPPGKGLEWIGRISGSGGSTSDNPSLKSRVTISKDTSKNQFSLKLSSVTAADTAVYYCASESFYYNFWSGYYQENSLDVWGRGVLVTVSS
VL: QPVLTQPTSLSASPGASARLSCTLSSGINVGSYSIFWYQQKPGSPPRYLLYYYSDSSKHQGSGVPSRFSGSKDASANAGLLLISGLQSEDEADYYCAIWHSSAYVLFGGGTRLTV
The molecule B17 yielded a Kd of 5.13 µM.

B18: NHP-10E8_MPER-GT10v55_W21-05 (antibody, V domains shown)
VH: EVRLVESGGGLVQPGGSLRLSCAASGFTFSDYYMSWVRQAPGKGPEWVGFIRNKANGGTAEYAASVKGRFTISRDDSKSIASLQMNSLKTEDTAVYYCARDTYTYNFWSGYYRSNSLDVWGRGVLVTVSS
VL: SYDLTQPPSVSVSPGQTARITCGGDNIGSEAVHWYQQKPPQAPVQVIYSDSERPSGIPERFSGSKSGNTATLTISGVEAGDEADYYCQVWDISSDHYIFGAGTRLTV
Take B18: binding was characterised by a dissociation constant (Kd) of 2.41 µM.

B19: NHP-10E8_MPER-GT10v55_W21-11 (antibody, V domains shown)
VH: EVRLVESGGGLVQPGGSLRLSCAASGFTFSDYYMSWVRQAPGKGPEWVGFIRNKANGGTAEYAASVKGRFTISRDDSKSIASLQMNSLKTEDTAVYYCARDRGNYNFWSGYSGSDYFDYWGQGVLVTVSS
VL: QSVLTQPPSVSAAPGQKVTISCSGSSSNIGRSYVSWYQQVPGTAPKLLIYDNNKRPSGVSDRFSGSKSGTSASLAITGLQTGDEADYYCGAWDSSLSAGLFGGGTRLTV
The molecule B19 gave a dissociation constant (Kd) of 8.11 µM.

B20: NHP-10E8_MPER-GT10v55_W21-14 (antibody, V domains shown)
VH: QVQLQESGPGLVKPSETLSLTCAVSGGSISSGYYYWSWIRQPPGKGLEWIGYITYSGSTSYNPSLKSRVTISRDTSKNQFSLKLSSVTAADTAVYYCASAPSYYNFWSGYYHLDYFDYWGQGVLVTVSS
VL: QSVLTQPPSVSGAPGQRVTISCTGSSSNIGGYYVSWYQQLPGTTPKLLIYQDNKRPSGVSDRFSGSKSGTSASLTITGLQTEDEADYYCLSYDSSLSAHGLFGGGTRLTV
Molecule B20 yielded a dissociation constant (Kd) of 2.4 µM.
